In this assay the target is hCINAP-H79G mutant (human) (UniProt Q9Y3D8). The experiment in a line: SEC.

Consider “hCINAP-H79G mutant (from UniProt Q9Y3D8 1-172) (enzyme)”, for which the stoichiometry N came to 2.

The record behind these values is article PMC3839082.
